Laboratory results taken from paper PMC9482650, “Quantitative fragmentomics allow affinity mapping of interactomes” (Nature Communications, 2022).

Columns and labels:
Assay in all cases: holdup assay
Design in all cases: key: below the threshold = too weak to quantify, mostly under pKd 3.1 to 4
APBA2_2, Q99767 = target: T1, APBA2_2, Q99767
T1 sequence (Q99767 654-744, limits assumed, looked up): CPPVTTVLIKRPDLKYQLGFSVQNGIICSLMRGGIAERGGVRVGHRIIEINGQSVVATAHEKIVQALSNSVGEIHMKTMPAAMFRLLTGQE

ARHGAP21, Q5T5U3 = target: T2, ARHGAP21, Q5T5U3
T2 sequence (Q5T5U3 45-169, limits assumed, looked up): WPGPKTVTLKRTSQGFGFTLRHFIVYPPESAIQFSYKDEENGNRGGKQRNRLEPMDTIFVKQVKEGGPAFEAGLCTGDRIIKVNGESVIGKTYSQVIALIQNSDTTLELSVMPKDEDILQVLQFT

DLG2_3, Q15700 = target: DLG2_3, Q15700
DLG3_3, Q92796 = target: T3, DLG3_3, Q92796
T3 sequence (Q92796 374-475, limits assumed, looked up): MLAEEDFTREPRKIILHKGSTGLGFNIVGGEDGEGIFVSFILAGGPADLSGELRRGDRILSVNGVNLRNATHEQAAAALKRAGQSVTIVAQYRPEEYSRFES

FRMPD2_3, Q68DX3 = target: FRMPD2_3, Q68DX3
Chain of FRMPD2_3, Q68DX3 (Q68DX3 1073-1166): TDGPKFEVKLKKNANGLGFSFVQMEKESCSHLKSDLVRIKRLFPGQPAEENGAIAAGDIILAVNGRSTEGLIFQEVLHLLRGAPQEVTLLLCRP

FRMPD4, Q14CM0 = target: FRMPD4, Q14CM0
Chain of FRMPD4, Q14CM0 (Q14CM0 67-160): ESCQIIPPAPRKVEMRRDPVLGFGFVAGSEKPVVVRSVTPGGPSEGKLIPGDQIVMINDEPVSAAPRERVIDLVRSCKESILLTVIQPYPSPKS

GOPC, Q9HD26 = target: GOPC, Q9HD26
GORASP2, Q9H8Y8 = target: GORASP2, Q9H8Y8
HTRA4, P83105 = target: T4, HTRA4, P83105
T4 sequence (P83105 378-476, limits assumed, looked up): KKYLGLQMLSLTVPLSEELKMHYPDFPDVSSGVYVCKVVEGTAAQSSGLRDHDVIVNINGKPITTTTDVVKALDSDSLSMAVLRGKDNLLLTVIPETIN

IL16_3, Q14005 = target: IL16_3, Q14005
Chain of IL16_3, Q14005 (Q14005 1107-1207): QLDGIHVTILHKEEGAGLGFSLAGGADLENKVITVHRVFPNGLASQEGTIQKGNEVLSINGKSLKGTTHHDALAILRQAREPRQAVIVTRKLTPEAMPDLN

IL16_4, Q14005 = target: IL16_4, Q14005
Chain of IL16_4, Q14005 (Q14005 1229-1329): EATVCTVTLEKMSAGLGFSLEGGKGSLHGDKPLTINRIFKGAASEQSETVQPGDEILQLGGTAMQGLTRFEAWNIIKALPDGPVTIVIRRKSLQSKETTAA

Inadl_4, Q8NI35 = target: Inadl_4, Q8NI35
Chain of Inadl_4, Q8NI35 (Q8NI35 547-651): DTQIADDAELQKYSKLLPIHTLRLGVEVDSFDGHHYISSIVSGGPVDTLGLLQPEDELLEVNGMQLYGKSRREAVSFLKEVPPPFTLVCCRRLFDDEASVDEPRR

Inadl_6, Q8NI35 = target: Inadl_6, Q8NI35
Chain of Inadl_6, Q8NI35 (Q8NI35 1058-1167): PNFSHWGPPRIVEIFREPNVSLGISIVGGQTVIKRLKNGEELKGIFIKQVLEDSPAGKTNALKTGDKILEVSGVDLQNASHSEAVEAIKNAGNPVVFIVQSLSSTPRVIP

Inadl_9, Q8NI35 = target: Inadl_9, Q8NI35
Chain of Inadl_9, Q8NI35 (Q8NI35 1530-1615): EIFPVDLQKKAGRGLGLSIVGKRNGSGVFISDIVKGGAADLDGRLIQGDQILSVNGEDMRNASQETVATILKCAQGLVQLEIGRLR

LNX1_3, Q8TBB1 = target: LNX1_3, Q8TBB1
Chain of LNX1_3, Q8TBB1 (Q8TBB1 500-596): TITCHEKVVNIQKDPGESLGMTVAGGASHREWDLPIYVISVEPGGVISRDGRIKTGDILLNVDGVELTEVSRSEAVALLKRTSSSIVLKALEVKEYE

LNX2_3, Q8N448 = target: T5, LNX2_3, Q8N448
T5 sequence (Q8N448 463-564, limits assumed, looked up): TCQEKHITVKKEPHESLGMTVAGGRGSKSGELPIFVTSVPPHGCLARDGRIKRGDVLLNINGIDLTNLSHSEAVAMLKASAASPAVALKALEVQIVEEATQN

LRRC7, Q96NW7 = target: T6, LRRC7, Q96NW7
T6 sequence (Q96NW7 1440-1537, limits assumed, looked up): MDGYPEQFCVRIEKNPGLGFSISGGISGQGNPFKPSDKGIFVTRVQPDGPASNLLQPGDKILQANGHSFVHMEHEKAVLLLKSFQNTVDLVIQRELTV

MAGI1_1, Q96QZ7 = target: MAGI1_1, Q96QZ7
Chain of MAGI1_1, Q96QZ7 (Q96QZ7 1-106): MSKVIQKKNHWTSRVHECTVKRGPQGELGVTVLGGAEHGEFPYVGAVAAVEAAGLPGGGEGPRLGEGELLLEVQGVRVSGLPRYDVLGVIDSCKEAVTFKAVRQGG

MAGI1_2, Q96QZ7 = target: MAGI1_2, Q96QZ7
Chain of MAGI1_2, Q96QZ7 (Q96QZ7 456-580): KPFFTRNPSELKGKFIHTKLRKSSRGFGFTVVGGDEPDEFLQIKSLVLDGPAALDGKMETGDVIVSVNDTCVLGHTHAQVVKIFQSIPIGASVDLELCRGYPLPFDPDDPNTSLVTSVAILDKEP

MAGI2_4, Q86UL8 = target: MAGI2_4, Q86UL8
Chain of MAGI2_4, Q86UL8 (Q86UL8 772-865): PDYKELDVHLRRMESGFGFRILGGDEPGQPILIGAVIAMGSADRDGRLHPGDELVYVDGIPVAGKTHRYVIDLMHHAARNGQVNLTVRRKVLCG

MAGI3_2, Q5TCQ9 = target: MAGI3_2, Q5TCQ9
Chain of MAGI3_2, Q5TCQ9 (Q5TCQ9 398-503): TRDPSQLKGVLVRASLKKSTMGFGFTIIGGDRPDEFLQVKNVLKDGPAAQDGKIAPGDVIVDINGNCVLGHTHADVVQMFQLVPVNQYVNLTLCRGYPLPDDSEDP

NHERF4_2, Q86UT5 = target: NHERF4_2, Q86UT5
Chain of NHERF4_2, Q86UT5 (Q86UT5 220-308): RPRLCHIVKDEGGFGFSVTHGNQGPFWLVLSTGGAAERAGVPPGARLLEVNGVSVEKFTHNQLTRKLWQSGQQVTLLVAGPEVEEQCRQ

NOS1, P29475 = target: NOS1, P29475
Chain of NOS1, P29475 (P29475 9-101): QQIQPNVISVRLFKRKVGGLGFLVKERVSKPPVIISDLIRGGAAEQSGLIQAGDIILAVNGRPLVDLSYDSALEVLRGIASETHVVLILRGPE

PARD3B_1, Q8TEW8 = target: T7, PARD3B_1, Q8TEW8
T7 sequence (Q8TEW8 196-299, limits assumed, looked up): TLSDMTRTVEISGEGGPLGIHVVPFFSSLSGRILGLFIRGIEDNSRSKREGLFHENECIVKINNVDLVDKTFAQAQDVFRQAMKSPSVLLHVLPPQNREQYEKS

PCLO, Q9Y6V0 = target: T8, PCLO, Q9Y6V0
T8 sequence (Q9Y6V0 4491-4600, limits assumed, looked up): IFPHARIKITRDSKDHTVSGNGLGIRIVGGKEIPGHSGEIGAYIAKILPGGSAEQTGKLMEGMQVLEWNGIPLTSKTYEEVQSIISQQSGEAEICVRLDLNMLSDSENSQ

SHANK1, Q9Y566 = target: T9, SHANK1, Q9Y566
T9 sequence (Q9Y566 658-767, limits assumed, looked up): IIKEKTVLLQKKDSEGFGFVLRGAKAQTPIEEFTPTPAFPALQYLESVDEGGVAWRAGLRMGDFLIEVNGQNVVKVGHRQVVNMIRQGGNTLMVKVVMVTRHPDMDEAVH

SYNJ2BP, P57105 = target: T10, SYNJ2BP, P57105
T10 sequence (P57105 8-110, limits assumed, looked up): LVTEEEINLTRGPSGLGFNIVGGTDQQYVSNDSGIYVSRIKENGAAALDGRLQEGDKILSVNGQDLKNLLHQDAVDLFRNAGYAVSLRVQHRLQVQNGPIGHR

[1] = plain residues with an end cap or a label only (N-terminal biotin on a linker: ttds)
[2] = plain residues with an end cap or a label only (N-terminal biotin on a linker: ahx)

FVETQHQTQV [FAT3, Q8TDW7]
pKd (APBA2_2, Q99767; [1]): below the threshold | pKd (ARHGAP21, Q5T5U3; [1]): below the threshold | pKd (DLG2_3, Q15700; [1]): 3.59 | pKd (DLG3_3, Q92796; [1]): 3.58 | pKd (FRMPD2_3, Q68DX3; [1]): below the threshold | pKd (FRMPD4, Q14CM0; [1]): below the threshold | pKd (GOPC, Q9HD26; [1]): 3.76 | pKd (GORASP2, Q9H8Y8; [1]): below the threshold | pKd (HTRA4, P83105; [1]): below the threshold | pKd (IL16_3, Q14005; [1]): below the threshold | pKd (IL16_4, Q14005; [1]): below the threshold | pKd (Inadl_4, Q8NI35; [1]): below the threshold | pKd (Inadl_6, Q8NI35; [1]): below the threshold | pKd (Inadl_9, Q8NI35; [1]): 3.61 | pKd (LNX1_3, Q8TBB1; [1]): below the threshold | pKd (LNX2_3, Q8N448; [1]): below the threshold | pKd (LRRC7, Q96NW7; [1]): below the threshold | pKd (MAGI1_1, Q96QZ7; [1]): below the threshold | pKd (MAGI1_2, Q96QZ7; [1]): 3.93 | pKd (MAGI2_4, Q86UL8; [1]): 3.91 | pKd (MAGI3_2, Q5TCQ9; [1]): 4.57 | pKd (NHERF4_2, Q86UT5; [1]): below the threshold | pKd (NOS1, P29475; [1]): 3.95 | pKd (PARD3B_1, Q8TEW8; [1]): below the threshold | pKd (PCLO, Q9Y6V0; [1]): below the threshold | pKd (SHANK1, Q9Y566; [1]): 3.63 | pKd (SYNJ2BP, P57105; [1]): 4.08

SAPATLSSRA [PDLIM2, Q96JY6]
pKd (APBA2_2, Q99767; [2]): below the threshold | pKd (ARHGAP21, Q5T5U3; [2]): below the threshold | pKd (DLG2_3, Q15700; [2]): below the threshold | pKd (DLG3_3, Q92796; [2]): below the threshold | pKd (FRMPD2_3, Q68DX3; [2]): below the threshold | pKd (FRMPD4, Q14CM0; [2]): below the threshold | pKd (GOPC, Q9HD26; [2]): below the threshold | pKd (GORASP2, Q9H8Y8; [2]): below the threshold | pKd (HTRA4, P83105; [2]): below the threshold | pKd (IL16_3, Q14005; [2]): below the threshold | pKd (IL16_4, Q14005; [2]): below the threshold | pKd (Inadl_4, Q8NI35; [2]): below the threshold | pKd (Inadl_6, Q8NI35; [2]): below the threshold | pKd (Inadl_9, Q8NI35; [2]): below the threshold | pKd (LNX1_3, Q8TBB1; [2]): below the threshold | pKd (LNX2_3, Q8N448; [2]): below the threshold | pKd (LRRC7, Q96NW7; [2]): below the threshold | pKd (MAGI1_1, Q96QZ7; [2]): below the threshold | pKd (MAGI1_2, Q96QZ7; [2]): below the threshold | pKd (MAGI2_4, Q86UL8; [2]): below the threshold | pKd (MAGI3_2, Q5TCQ9; [2]): below the threshold | pKd (NHERF4_2, Q86UT5; [2]): below the threshold | pKd (NOS1, P29475; [2]): below the threshold | pKd (PARD3B_1, Q8TEW8; [2]): below the threshold | pKd (PCLO, Q9Y6V0; [2]): below the threshold | pKd (SHANK1, Q9Y566; [2]): below the threshold | pKd (SYNJ2BP, P57105; [2]): below the threshold

SGGKRKETLV [NET1, Q7Z628]
pKd (APBA2_2, Q99767; [1]): below the threshold | pKd (ARHGAP21, Q5T5U3; [1]): below the threshold | pKd (DLG2_3, Q15700; [1]): 5.21 | pKd (DLG3_3, Q92796; [1]): 5.05 | pKd (FRMPD2_3, Q68DX3; [1]): below the threshold | pKd (FRMPD4, Q14CM0; [1]): 3.65 | pKd (GOPC, Q9HD26; [1]): 3.82 | pKd (GORASP2, Q9H8Y8; [1]): 4.03 | pKd (HTRA4, P83105; [1]): below the threshold | pKd (IL16_3, Q14005; [1]): below the threshold | pKd (IL16_4, Q14005; [1]): below the threshold | pKd (Inadl_4, Q8NI35; [1]): below the threshold | pKd (Inadl_6, Q8NI35; [1]): 3.6 | pKd (Inadl_9, Q8NI35; [1]): 3.66 | pKd (LNX1_3, Q8TBB1; [1]): below the threshold | pKd (LNX2_3, Q8N448; [1]): below the threshold | pKd (LRRC7, Q96NW7; [1]): below the threshold | pKd (MAGI1_1, Q96QZ7; [1]): below the threshold | pKd (MAGI1_2, Q96QZ7; [1]): 5.72 | pKd (MAGI2_4, Q86UL8; [1]): 4.75 | pKd (MAGI3_2, Q5TCQ9; [1]): 5.92 | pKd (NHERF4_2, Q86UT5; [1]): below the threshold | pKd (NOS1, P29475; [1]): 4.09 | pKd (PARD3B_1, Q8TEW8; [1]): 3.52 | pKd (PCLO, Q9Y6V0; [1]): below the threshold | pKd (SHANK1, Q9Y566; [1]): below the threshold | pKd (SYNJ2BP, P57105; [1]): 5.2

ADENEQVSAV [RAPGEF6, Q8TEU7]
pKd (APBA2_2, Q99767; [2]): below the threshold | pKd (ARHGAP21, Q5T5U3; [2]): below the threshold | pKd (DLG2_3, Q15700; [2]): 3.63 | pKd (DLG3_3, Q92796; [2]): below the threshold | pKd (FRMPD2_3, Q68DX3; [2]): below the threshold | pKd (FRMPD4, Q14CM0; [2]): below the threshold | pKd (GOPC, Q9HD26; [2]): below the threshold | pKd (GORASP2, Q9H8Y8; [2]): below the threshold | pKd (HTRA4, P83105; [2]): below the threshold | pKd (IL16_3, Q14005; [2]): below the threshold | pKd (IL16_4, Q14005; [2]): below the threshold | pKd (Inadl_4, Q8NI35; [2]): below the threshold | pKd (Inadl_6, Q8NI35; [2]): 3.59 | pKd (Inadl_9, Q8NI35; [2]): below the threshold | pKd (LNX1_3, Q8TBB1; [2]): below the threshold | pKd (LNX2_3, Q8N448; [2]): below the threshold | pKd (LRRC7, Q96NW7; [2]): below the threshold | pKd (MAGI1_1, Q96QZ7; [2]): below the threshold | pKd (MAGI1_2, Q96QZ7; [2]): 3.83 | pKd (MAGI2_4, Q86UL8; [2]): below the threshold | pKd (MAGI3_2, Q5TCQ9; [2]): 3.61 | pKd (NHERF4_2, Q86UT5; [2]): below the threshold | pKd (NOS1, P29475; [2]): 3.61 | pKd (PARD3B_1, Q8TEW8; [2]): below the threshold | pKd (PCLO, Q9Y6V0; [2]): below the threshold | pKd (SHANK1, Q9Y566; [2]): 3.88 | pKd (SYNJ2BP, P57105; [2]): 3.74

SRSRRRETAL [HPV33-E6, P06427]
pKd (APBA2_2, Q99767; [1]): below the threshold | pKd (ARHGAP21, Q5T5U3; [1]): 3.45 | pKd (DLG2_3, Q15700; [1]): 5.23 | pKd (DLG3_3, Q92796; [1]): 5.07 | pKd (FRMPD2_3, Q68DX3; [1]): below the threshold | pKd (FRMPD4, Q14CM0; [1]): 3.87 | pKd (GOPC, Q9HD26; [1]): 3.97 | pKd (GORASP2, Q9H8Y8; [1]): 4.26 | pKd (HTRA4, P83105; [1]): below the threshold | pKd (IL16_3, Q14005; [1]): below the threshold | pKd (IL16_4, Q14005; [1]): below the threshold | pKd (Inadl_4, Q8NI35; [1]): below the threshold | pKd (Inadl_6, Q8NI35; [1]): 3.7 | pKd (Inadl_9, Q8NI35; [1]): below the threshold | pKd (LNX1_3, Q8TBB1; [1]): below the threshold | pKd (LNX2_3, Q8N448; [1]): below the threshold | pKd (LRRC7, Q96NW7; [1]): 3.68 | pKd (MAGI1_1, Q96QZ7; [1]): below the threshold | pKd (MAGI1_2, Q96QZ7; [1]): 5.67 | pKd (MAGI2_4, Q86UL8; [1]): below the threshold | pKd (MAGI3_2, Q5TCQ9; [1]): 5.39 | pKd (NHERF4_2, Q86UT5; [1]): below the threshold | pKd (NOS1, P29475; [1]): 4.03 | pKd (PARD3B_1, Q8TEW8; [1]): 3.43 | pKd (PCLO, Q9Y6V0; [1]): below the threshold | pKd (SHANK1, Q9Y566; [1]): 3.51 | pKd (SYNJ2BP, P57105; [1]): 5.3
